B1: TPR t1 (parent)
chain: GACCAAUCUGCCCUCAGAGCUCGAGAACAUCUUCGGAUGCAGAGGAGGCAGGCUUCGGUGGCGCGAUAGCGCCAACGUCCUCAACCUCCAAUGCAUCCCACCACAUGAUGAUGCCUGAAGAGCCUUGGUUUUUUG

Variants of: B1
Experiment: polymerase ribozyme fitness, log enrichment relative to wild type (log ratio); higher = more active; in vitro selection for triplet polymerase activity
In short: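 Streptavidin-bead capture of gel-excised extended constructs, followed by RT-PCR, closed a single triplicate in vitro selection round. That round began by annealing PCR-built, transcribed mutant libraries of each subunit of a heterodimeric triplet polymerase ribozyme with a biotinylated primer, the partner subunit and triplets, then incubating them frozen at −7 °C. After Illumina sequencing of inputs and outputs, genotypes needed ≥10 input reads and ≥1 read per output. Fitness is the base-2 logarithm of genotype enrichment over wild-type enrichment, using inverse-variance-weighted replicate averages.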

| Variant | polymerase ribozyme fitness (log ratio) |
| --- | --- |
| GACCCAUCUGCCCUCAGAGCUCGGGAACAUCUUCGGAUGCAGAGGAGUCAGGCUUCGGUGGCGCGAUAGCGCCAACGUCCUCAACCUCCAAUGCAUCCCACCACAUGAUAAUGCCUGAAGAGCUUUGGUUCUUUG [A5C A24G G48U G110A C124U U131C] | -4.58 |
| GACCAAUCUGCCCUCAGAGCUCGAGAACAUCUUCGGAUGCAGAGGAGGCAGGCUUCGGUGGCGCGAUAGCGCCAACGUCCUCAACCUCCAAUGCCUCCCACAACAUGAUGAUGCCUGAAGAGCCUUGGUUUUAUC [A95C C102A U133A G135C] | -2.89 |
| GACCACUCUGCCCUCAGAGCUCGAGAACAUCUUCGGCUGCAGAGGAGGCAGGCUUCGGUGGCGCGAUAGCGCCAACGUCCUCAACCUCCAAUGCAUCCCACCACAUGAUGAUGCCUGAAGAGCCUUGGUUUUUUG [A6C A37C] | -0.884 |
| GACCAAUCUGCCCUCAGAGCUCGAGAACAUCUUCGGAUGCAGAAGAGGCAGGCUUCGGUGGCGCGAUACCGCCAACGUCCUCAACCUCUAAUGCAUCCCACCACAUGAUGAUGCCUGUAGAGCGUUCGUUUUUUG [G44A G69C C89U A118U C124G G127C] | -0.292 |
| GACCAAUCUGCCCUCAGAGCUCGAGAACAUCUUCGGAUGGAGAGGAGGCAGGCUUCGGUGGCGCGAUAGCGCCAACGUCCUCAACCUCCAAUGCAUCCCACCACAUGAUGAUGCCUGAAGAGCCUUGAUUUUUUG [C40G G128A] | -3.61 |
| GACCAAUCUGCCCUCAGAGCUCGAGAACAUCUUCGGAUGCAGAGGAGGCAAGCUUCGGUGGCGCGAUAGCGCCGACGUCCUCAACCUCCAAUGCAUCCCACCACAUGAUGAUGCCUGAAGAGCCUUGGUUUUUUG [G51A A74G] | -1.96 |
| GACCAAUCUGCCCUCAGAGCUCGAGAACAUCUUCGGAUGCAGAGGAGGCAGGCUUCGGUGGCGCGAUAGCGCCUACGUCCUCAACCUCCAAUGCAUCCCACCACAUGAUGAUGCGUGAAGAGCCUUGGAAUUUUG [A74U C115G U129A U130A] | -2.87 |
| GACCAAUCUGCCCUCAGAGCUGGAGAACAUCUUCGGAUGCAGAGGAGGCAGGCUUUGGUGGCGCGAUAGCGCCAACGUCCUCAACCUCCAAUGCAUCCCACCAAAUGAUGAUGCCUGAAGAGCCUUGGUUUUUUG [C22G C56U C104A] | -2.51 |
| GACCAAUCUGCCCUCAAAGCUCGAAAACAUCUUCGGAUGCAGAGGAGGCACGGUUCGGUGGCGCGAUAGCGCCAACGUCCUCAACCUCCAAUGCAUCCCACCACAUGAUGCUGCCUGAAGAGCCUUGGUUUUUUG [G17A G25A G51C C53G A111C] | -6.66 |
| GACCAAUCUGCCCUCAGAGCUCGAAAACAUCUUCGGAUGCAGAGGAGGCAGGCUUCGGUGGCGCGAUAGCGCCAACGUCCUCAACCUCCAAUGCAUCCCACCACAAGAUGAUGCCUGAAGAGCCUUGGUUUUUUG [G25A U106A] | -4.81 |
| GACCAAUCUGCCCUCAGAGCUCGAGAACAUCUUCGGAUGCAGAGGAGGCAGGCUUCGGUGGCGCGAUAGCGCCAAGGUCCUCAACCUCCAAUGCAUCCCACCACAUGACGAUGCCUGAUGAGACUUGGUUUUUUG [C76G U109C A119U C123A] | -6.47 |
| GACCAAUCUGCCCUCAGAGCUCGAGAACAUCUUCGGAUGCAGUGGAGGCAGGCUUCGGUGGCGCGAUAGCGCCAACGUCCUCAACCUCCAAUGCAUCCCACCACAUGAUGAUGCCUGAACAGCCUUGGUUUAUUG [A43U G120C U132A] | 0.0679 |
| GACCAAUCUGCCCUCAGAGCUCGAGAACAUCUUCGGAUGCAGAGGAGGCUGGCUUCGGUGGCGCGAUAGCGCCAACGUCCACAACCUCCAAUGCAUCCCACCACAUGAUGAUGCCUGAAGAGCCUUGGUUUUUUG [A50U U81A] | -0.662 |
| GACCAAUCUGCCCUCAGAGCUCGAGAACAUCUUCGGAUGCAGAGGAGGAAGGCUUCGGUGGCGCGAUAGCGCCAACGUCCUCAACCUCCAAUGCAUCCCACCACAUGAUUAUGCCUGAAGAGCCUUGGUUUUUUG [C49A G110U] | -1.73 |
| GACCAAUAUGCCCUCAGAGCUCGAGAACAUCUUCGGAUGCAGAGGAGGCAGGCUUCGGUGGCGCGAUAGCGCCAACGUCCUCAACCUCCAAUGCAUCCCACCGCAUGAUUAUGCCUGAAGAGCCUUGGUUUUUUG [C8A A103G G110U] | -5.33 |
| GACCAAUCUGCCCUCUGAGCUCGAGAACAUCUUCGGAUGUAGAGGAGGCAGGCUUCGGUGGCGCGAUAGCGCGAACGUCCUCAACCUCCAAUGCAUCCCACCACAUGAUGAUGCCUGAAGAGCCUUGGUUUUUUG [A16U C40U C73G] | -2.11 |
| GACCUAUCUGCCGUCAGAGCUCGAGAACAUCUUCGGAUGCAGACGAGGCAGGCUUCGGUGGCGCGAUAGCGCCAACGUCCUCAACCUCCAAUGCAUCCCACCACAUGAUGAUGCCUGAAGAGCCUUGGUUUUUUG [A5U C13G G44C] | -2.74 |
| GACCAAUCUGCCCUCAGAGCUCGAGAACAUCUUCGGAUGCAGAGGAGGCAGGCUUCGGUGGCGCGAUAGCGCCAACGUCCUCAACCUCCAAUGCAUCCCACCAAAUGAUGAUGCCUGAAGAGGCUUGGUUUUUUG [C104A C123G] | -0.779 |
| GACCAAUCUGCCCUCAGAGCUCGAGAACAUCUUCGGAUGCAGAGGAGGCAGGCUUCGGUGGCGCGAUAGCGCCAACGUCCUCAACCUCCAAUGCAUCCCACCACAGGAUGAUGCCUGAAGAGCCUUGGUUUUUUG [U106G] | -1.17 |
| GACCAAUCUGCCCUCAGAGCUGGAGAACAUCUUCGGAUGCAGAGGCGGCAGGCUUCGGUGGCGCGAUAGCGCCAACGUCCUCAACCUCCAAUGCAUCCCACCACAUGAUGAUGCCUGAAGAGCCUUGGUUUUUUG [C22G A46C] | -3.97 |
| GACCAAUCUGCCCUCAGAGCUCGAGAACAUAUUCGGAUGCAGAUGACGCAGGCUUCGGUGGCGCGAUAGCGCCAACGGCCUCAACCUCCAAUGCAUCCCACCACAUGAUGAUGCCUGAACAGCCUUUGUUUUUUG [C31A G44U G47C U78G G120C G127U] | -6.6 |

| Variant | polymerase ribozyme fitness (log ratio) |
| --- | --- |
| GACCAAUCUGCCCUCAGAGCUCGAGAACAUCUUCGGAUGCAGAGGAAGCAGGCUUCGGUGGAGCGAUAGCGCCAACGUCCUCAACCUCCAAUGCAUCCCACCACAUGAUGAUGCCUGAAGAGCCUUGGUUUUUUG [G47A C62A] | -1.78 |
| GACCAAUCUGCCCUCAGAGCUCGAGAACAUCUUCGGAUGUAGAGGAGGCAGGCUUCGGUGGCGCGAUAGCGCCAACGUCCUCAACCUCCAAUGCAUCCCACCACAUGAUGAUGCCUGAAGAGCCUUGGUUAUUUG [C40U U131A] | -0.601 |
| GACCAAUCUGCCCUCAGAGCUCGAGAACAUCUUCGGUUGCAGAGGAGGCAGGCUUCGGUGGCGCGAUAGCGCCAACGUCCUCAACCUCCAAUGCAUCCCACCACAUGAUGAUGCCUCAAGAUCCUUGGUUUUUUG [A37U G117C G122U] | -5.5 |
| GACCAAUCUGCCCUCAGAGCUCGAGAAUAUCUUCGGUUGCAGAGGAGGCAGGCUUCGGUGGCGCGAUAGCGCCAACGUCCUCAACCUCCAAUGCAUCCCACCACAUGAUGAUGCCUGAAGAGCCUUGGUUUUUUG [C28U A37U] | -2.36 |
| GACCAAUCUGCCCUCAGAGCUAGAGAACAUCUUCGGAUGCAGAGGAGGCAGGCUUCGGUGGCGUGAUAGCGCCAACGUCCUCAACCUCCAAUGCAUCCCACCACAUGAUGAUGGCUGAAGAGCCUUGGUUUUUUU [C22A C64U C114G G135U] | -5.66 |
| GACCAAUCUGCCCUAAGAGCUCGAGAACAUCUUCGGAUGCAGAGGAGGCAGGCUUCGGUGGCUCGAUAGCGCCAACGUCCUCAACCUCCAAUGCAUCCCACCACAUGAUGAUGCCUGAAGAGCCUUGGUUUUUUG [C15A G63U] | -3.03 |
| GACCAAUCUGCCCUCAGAGCUCGAGAACAUCUUCGGAUACAGAGGAGGCAGGCUUCGGUGGCGCGAUAGCGCCAACGUCCUCACCCUCCAAUGCAUCCCACCACAUGAUGAUGCCUGAAGAGCCUUGGUUUUUUG [G39A A84C] | -1.2 |
| GUCCAAUCUGCCCUCAGAGCUCGAGAACAUCUUCGGAUGCAGAGGAGGCAGGCUUCGGUGGCGCGAUAGCGCCAACGUCCUCAACCUCCAAUGCAUCCCACCACAUGAUGAUGCCUGAAGAGCCUUGGUUUUUUU [A2U G135U] | -1.94 |
| GACCAAUCUGCCCUCAGAGCUCGAGAACAUCUUCGGAUGCAGAGGAGGCAGACUUCGGUGGAGCGAUAGCGCCAACGUCCUCAACCACCAAUGCAUCCCACCACAUGAUGAUGCCUGAAGAGCCUUGGUUUUUUG [G52A C62A U87A] | -3.07 |
| GAACAAUCUGCCCUCAGAGCUCGAGAACAUCUUCGGUUGCAGAGGAGGCAGGCUUCGGUGGCGCGAUAGCGCCAACGUCCUCAACCUCCAAUGCAUCCCACCACAUGAUGAUGCCUGAAGAGCCUUGGUUUUUUG [C3A A37U] | -2.19 |
| GACCAAUCUACCCUCAGAGCUCGAGAACAUCUUCGGAUGCAAUGGAGGCAGGCUUCGGUGGCGUGAUAGCGCCAACGUCCUCAACCUCCAAUGCAUCCCACCACAUGAUGAUGCCUGAAGAGCCUUGGUUUUUUG [G10A G42A A43U C64U] | -1.45 |
| GACCAAUCUGCCCUCAGAGCUCGAGAACAUCUUCGGAUGCAGAGGAGGCAGGCUUCGGAGGCGCGAUAGCACCAACGUCCUCAACCUCCAGUGCAUCCCUCCACAUGAUGAUACCUGAAGAGCCUUGGUUUUUUG [U59A G71A A91G A100U G113A] | -4.54 |
| GACCAAUCUGCCCUCAGAGCUCGAGAACAUCUUCGGAUGCAGAGGAGGCAGGCUUCGCUGGCGCGAUAGCGCCAACGUCCUCAACCUCCAAUGCAUCCCACCACAUGAUGAUGCCCGAAGAGCCUUGGUUUUUUG [G58C U116C] | -0.944 |
| GACCAAUCUGCCCUCAGAGCUCGAGAACAUCUUCGGAUGCAGAGGAGGCAGGCUUCGGUGGCGCGAUAACGCCAACGUCCUCAACCUCCAAUGCAUCCCACCACAUGAUGGUGCCUGAAGAGCCUUGGUUUUUUG [G69A A111G] | -2.61 |
| GACCAAUCUGCCCUCAGAGCUCGAGAACAUCUUCGGAUGCAGAGGAGGCAGGCUUCGGUGGCGCGAUAACGCCAACGUCCUCAACCUCCAAUGCAUCCCACCACAUGAUGAUACCUGAAGUGCCUUGGUUUUUUG [G69A G113A A121U] | -1.68 |
| GACCAAUCUACCCUCAGAGCUCGAGAACAUCUUCGGAUGCAGAGGAGGCAGGCUUCGGUGGCGCGAUAGCGACAACGUCCUCAACCGCCAAUGCAUCCCACUACAUGAUGAUGCCUGAAGAGCCUUGGUUUUUUG [G10A C72A U87G C102U] | -1.09 |
| GACCAAUCUGCCCUCAGAGCUCGAGAACAUCUUCGGAUACAGAGAAGGCAGGAUUCGGUGGCGCGAUAGCGCCAACGUCCUCAACCUCCAAUGCAUCCCACUACAUGAUGCUGCCUGAAGAGCCUUGGUUUUUUG [G39A G45A C53A C102U A111C] | -3.94 |
| GACCAAUCUGCCCUCAGAGCUCGAGAACAUCUUCGGAUGCAGAGGUGGCAGGCUUCGGUGGCGCGAUAGCGCCAACGUCCUCAACCUCCAAUGCAUCCCACCACAUGAUGAGGCCUGAAGAGCCUUGGUUUUUUG [A46U U112G] | -1.08 |
| GACCAAUCUGCCCUCAGAGCUCGAGAACAUCUUCGGAUGCAGAGGAGGCAGGCUUCGGUGGCGCGAUAUCGCCAACGUCCUCAACCUUCAAUGCAUCCCACCACAUGAUGAUGCCUGAAUAGCCUUGGUUUUUUG [G69U C88U G120U] | 0.599 |
| GACCAAUCUACCCUCAGAGCUCGAGAACAUCUUCGGAUGCAGAGGAGGCAGGCUUCGGUGGCGCGAUAGCGCCAACGUCCUCAACCUCCAAUGCAUCCCACCACAAGAUGAUGCCUGAAGAGCCUUGGUUUUUUG [G10A U106A] | 0.457 |
| GACCAAUCUGCCCUGAGAGCUCGAGAACAUCUUCGGAUGCAGAGGAAGCAGGCUUCGGUGGCGCGAUAGGGCCAACGUCCUCAACCUCCAAUGCAUCCCACCACAUGAUGAUGCCUCAAGAGCCUUGGUUUUUUG [C15G G47A C70G G117C] | -3.82 |
